Among the data in patent US20180355013A1 are fold improved binding avidity against monomeric NKG2D-Fc chimeras values, retold here.

The target of this test is NKG2D ligands on NKG2D ligand-expressing cells. The test can be described thus: summary of the Examples; assay not given.

Substance hNKG2Dx2-hIgG1 (Fc fusion) returned a fold improved binding avidity against monomeric NKG2D-Fc chimeras of less than 100 fold.
